The record followed here is publication PMC11971276 (Nature Communications, 2025).

The target of assay [1] is biotinylated human CCN2 (human) (UniProt P29279). Briefly: competition electrochemiluminescence assay.
The target of assay [2] is human CCN2 (R&D Systems) (human) (UniProt P29279). Briefly: electrochemiluminescence assay.
The target in assay [3] is Human CCN2 tagged with human Fc (human) (UniProt P29279). Briefly: SPR. (Surface plasmon resonance follows binding to a sensor surface in real time, without labels.)
In assay [4] the target is recombinant CCN2 (UniProt P29279). Briefly: ELISA. On the technique in general: An ELISA detects its analyte on a solid surface through an enzyme-linked reagent.
The target of assay [5] is biotinylated human CCN2 (Homo sapiens, UniProt P29279, biotin (sites not given)). Briefly: competition electrochemiluminescence assay.
biotinylated human CCN2, sequence (P29279 27-349): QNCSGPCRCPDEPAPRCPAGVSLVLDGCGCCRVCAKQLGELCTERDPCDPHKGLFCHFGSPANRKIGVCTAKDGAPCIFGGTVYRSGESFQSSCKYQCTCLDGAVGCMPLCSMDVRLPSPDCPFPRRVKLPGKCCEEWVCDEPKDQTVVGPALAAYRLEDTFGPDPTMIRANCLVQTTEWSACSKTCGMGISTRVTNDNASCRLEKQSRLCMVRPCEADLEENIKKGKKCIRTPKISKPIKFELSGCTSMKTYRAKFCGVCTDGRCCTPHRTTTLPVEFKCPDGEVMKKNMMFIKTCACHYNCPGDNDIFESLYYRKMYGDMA

Human CCN2 tagged with human Fc (human), sequence (P29279 27-349): as above
biotinylated human CCN2 (human), sequence (P29279 27-349): as above
human CCN2 (R&D Systems) (human), sequence (P29279 27-349): as above
recombinant CCN2, sequence (P29279 27-349): as above

For PRS-220 (designed binder), in assay [1], the half-maximal inhibitory concentration (IC50) (as a rule, the concentration needed to halve the response being measured) worked out at 0.35 nM. Also, in assay [2], the relative potency [%], post-nebulization stood at 100%. For the same molecule, in assay [3], the Kd (usually the concentration at which binding is half-saturated) was determined as 0.06 nM, the fold higher affinity than pamrevlumab came to 364 fold and the fold slower dissociation than pamrevlumab was found to be 169 fold. Moreover, the half-maximal effective concentration (EC50) (in general, the concentration that produces a half-maximal response) in assay [4] is 0.39 nM.

B1: pamrevlumab (antibody, V domains shown)
VH: EGQLVQSGGGLVHPGGSLRLSCAGSGFTFSSYGMHWVRQAPGKGLEWVSGIGTGGGTYSTDSVKGRFTISRDNAKNSLYLQMNSLRAEDMAVYYCARGDYYGSGSFFDCWGQGTLVTVSS
VL: DIQMTQSPSSLSASVGDRVTITCRASQGISSWLAWYQQKPEKAPKSLIYAASSLQSGVPSRFSGSGSGTDFTLTISSLQPEDFATYYCQQYNSYPPTFGQGTKLEIK
Take B1: the IC50 in assay [5] turned out to be 1.14 nM. In other words, the single-digit nanomolar range.
